Data: publication PMC9321335, “Palmitic Acid-Conjugated Radiopharmaceutical for Integrin αvβ3-Targeted Radionuclide Therapy” (Pharmaceutics, 2022)

Experiment: in vivo
Conditions: C57BL/6, mouse, total radioactivity; for tissue to tissue ratio at 1 h / tissue to tissue ratio at 4 h / tissue to tissue ratio at 12 h / tissue to tissue ratio at 24 h / tissue to tissue ratio at 72 h: Tumor-to-tissue ratio
Protocol: Mice bearing MC38 xenografts were randomly divided into 10 groups (n = 4). The mice in five groups were administered 0.74 MBq/20 µCi of ^177Lu-Palm-3PRGD2 and sacrificed at 1, 4, 12, 24, and 72 h p.i. The mice on one group was injected with 0.74 MBq/20 µCi of ^177Lu-Palm-3PRGD2 and 500 μg (242 nmol) 3PRGD2 as a blocking agent and sacrificed at 1 h p.i. […] Tumors and major organs were harvested, weighed and measured for radioactivity using a γ-counter. The organ uptake was calculated as the percentage injected activity per gram (%IA/g). The effective absorbed dose in humans estimated from mouse biodistribution data by using a dedicated software (OLINDA 1.0).

CCCCCCCCCCCCCCCC(=O)N[C@@H](CCC(=O)NCCCC[C@H](NC(=O)CN1CCN(CC(=O)O)CCN(CC(=O)O)CCN(CC(=O)O)CC1)C(=O)NCCOCCOCCOCCOCCC(=O)N[C@@H](CCC(=O)NCCOCCOCCOCCOCCC(=O)NCCCC[C@@H]1NC(=O)[C@@H](Cc2ccccc2)NC(=O)[C@H](CC(=O)O)NC(=O)CNC(=O)[C@H](CCCNC(=N)N)NC1=O)C(=O)NCCOCCOCCOCCOCCC(=O)NCCCC[C@@H]1NC(=O)[C@@H](Cc2ccccc2)NC(=O)[C@H](CC(=O)O)NC(=O)CNC(=O)[C@H](CCCNC(=N)N)NC1=O)C(=O)O [^177Lu-Palm-3PRGD2, [^177Lu]Lu-DOTA-Palm-3PRGD2, metal not drawn]
tissue uptake at 1 h (0.74 MBq, Blood uptake): 9.73 %ID/g
tissue uptake at 4 h (0.74 MBq, Blood uptake): 4.11 %ID/g
tissue uptake at 12 h (0.74 MBq, Blood uptake): 0.58 %ID/g
tissue uptake at 24 h (0.74 MBq, Blood uptake): 0.24 %ID/g
tissue uptake at 72 h (0.74 MBq, Blood uptake): 0.21 %ID/g
tissue uptake at 1 h (0.74 MBq, Bone uptake): 3.39 %ID/g
tissue uptake at 4 h (0.74 MBq, Bone uptake): 4.55 %ID/g
tissue uptake at 12 h (0.74 MBq, Bone uptake): 3.05 %ID/g
tissue uptake at 24 h (0.74 MBq, Bone uptake): 3.13 %ID/g
tissue uptake at 72 h (0.74 MBq, Bone uptake): 1.97 %ID/g
tissue uptake at 1 h (0.74 MBq, Brain uptake): 0.52 %ID/g
tissue uptake at 4 h (0.74 MBq, Brain uptake): 0.55 %ID/g
tissue uptake at 12 h (0.74 MBq, Brain uptake): 0.43 %ID/g
tissue uptake at 24 h (0.74 MBq, Brain uptake): 0.4 %ID/g
tissue uptake at 72 h (0.74 MBq, Brain uptake): 0.29 %ID/g
tissue uptake at 1 h (0.74 MBq, Heart uptake): 5.59 %ID/g
tissue uptake at 4 h (0.74 MBq, Heart uptake): 4.93 %ID/g
tissue uptake at 12 h (0.74 MBq, Heart uptake): 3.2 %ID/g
tissue uptake at 24 h (0.74 MBq, Heart uptake): 2.7 %ID/g
tissue uptake at 72 h (0.74 MBq, Heart uptake): 1.53 %ID/g
tissue uptake at 1 h (0.74 MBq, Intestinal uptake): 20.6 ± 1.97 %ID/g
tissue uptake at 72 h (0.74 MBq, Intestinal uptake): 12.8 ± 1.06 %ID/g
tissue uptake at 4 h (0.74 MBq, Intestine uptake): 17.6 %ID/g
tissue uptake at 12 h (0.74 MBq, Intestine uptake): 21.1 %ID/g
tissue uptake at 24 h (0.74 MBq, Intestine uptake): 17.4 %ID/g
tissue uptake at 1 h (0.74 MBq, Kidney uptake): 17.6 %ID/g
tissue uptake at 4 h (0.74 MBq, Kidney uptake): 20.1 ± 0.6 %ID/g
tissue uptake at 12 h (0.74 MBq, Kidney uptake): 19.3 %ID/g
tissue uptake at 24 h (0.74 MBq, Kidney uptake): 17 %ID/g
tissue uptake at 72 h (0.74 MBq, Kidney uptake): 10.6 ± 1.11 %ID/g
tissue uptake at 1 h (0.74 MBq, Liver uptake): 13.7 %ID/g
tissue uptake at 4 h (0.74 MBq, Liver uptake): 22.4 ± 2.55 %ID/g
tissue uptake at 12 h (0.74 MBq, Liver uptake): 22.1 %ID/g
tissue uptake at 24 h (0.74 MBq, Liver uptake): 13.7 %ID/g
tissue uptake at 72 h (0.74 MBq, Liver uptake): 6.73 ± 1.18 %ID/g
tissue uptake at 1 h (0.74 MBq, Lung uptake): 7.79 %ID/g
tissue uptake at 4 h (0.74 MBq, Lung uptake): 7.85 %ID/g
tissue uptake at 12 h (0.74 MBq, Lung uptake): 5.2 %ID/g
tissue uptake at 24 h (0.74 MBq, Lung uptake): 3.53 %ID/g
tissue uptake at 72 h (0.74 MBq, Lung uptake): 1.55 %ID/g
tissue uptake at 1 h (0.74 MBq, Muscle uptake): 1.96 %ID/g
tissue uptake at 4 h (0.74 MBq, Muscle uptake): 1.7 %ID/g
tissue uptake at 12 h (0.74 MBq, Muscle uptake): 1.24 %ID/g
tissue uptake at 24 h (0.74 MBq, Muscle uptake): 0.96 %ID/g
tissue uptake at 72 h (0.74 MBq, Muscle uptake): 0.7 %ID/g
tissue uptake at 1 h (0.74 MBq, Spleen uptake): 7.35 %ID/g
tissue uptake at 4 h (0.74 MBq, Spleen uptake): 12.4 %ID/g
tissue uptake at 12 h (0.74 MBq, Spleen uptake): 18.4 %ID/g
tissue uptake at 24 h (0.74 MBq, Spleen uptake): 14.9 %ID/g
tissue uptake at 72 h (0.74 MBq, Spleen uptake): 8.38 %ID/g
tissue uptake at 1 h (0.74 MBq, Stomach uptake): 5.73 %ID/g
tissue uptake at 4 h (0.74 MBq, Stomach uptake): 7.22 %ID/g
tissue uptake at 12 h (0.74 MBq, Stomach uptake): 6.07 %ID/g
tissue uptake at 24 h (0.74 MBq, Stomach uptake): 3.7 %ID/g
tissue uptake at 72 h (0.74 MBq, Stomach uptake): 1.38 %ID/g
tissue uptake at 1 h (0.74 MBq, Tumor uptake): 14.4 ± 2.53 %ID/g
tissue uptake at 4 h (0.74 MBq, Tumor uptake): 26.3 ± 6.34 %ID/g
tissue uptake at 12 h (0.74 MBq, Tumor uptake): 22.9 ± 4.2 %ID/g
tissue uptake at 24 h (0.74 MBq, Tumor uptake): 17.2 ± 3.3 %ID/g
tissue uptake at 72 h (0.74 MBq, Tumor uptake): 5.83 ± 1.27 %ID/g
tissue to tissue ratio at 1 h (0.74 MBq, Blood): 1.47
tissue to tissue ratio at 4 h (0.74 MBq, Blood): 7.28
tissue to tissue ratio at 12 h (0.74 MBq, Blood): 44.9
tissue to tissue ratio at 24 h (0.74 MBq, Blood): 73.2
tissue to tissue ratio at 72 h (0.74 MBq, Blood): 28.2
tissue to tissue ratio at 1 h (0.74 MBq, Bone): 4.3
tissue to tissue ratio at 4 h (0.74 MBq, Bone): 6.66
tissue to tissue ratio at 12 h (0.74 MBq, Bone): 7.14
tissue to tissue ratio at 24 h (0.74 MBq, Bone): 5.61
tissue to tissue ratio at 72 h (0.74 MBq, Bone): 2.96
tissue to tissue ratio at 1 h (0.74 MBq, Brain): 27.9
tissue to tissue ratio at 4 h (0.74 MBq, Brain): 55.3
tissue to tissue ratio at 12 h (0.74 MBq, Brain): 52.5
tissue to tissue ratio at 24 h (0.74 MBq, Brain): 42.5
tissue to tissue ratio at 72 h (0.74 MBq, Brain): 19.9
tissue to tissue ratio at 1 h (0.74 MBq, Heart): 2.59
tissue to tissue ratio at 4 h (0.74 MBq, Heart): 6.12
tissue to tissue ratio at 12 h (0.74 MBq, Heart): 7.11
tissue to tissue ratio at 24 h (0.74 MBq, Heart): 6.41
tissue to tissue ratio at 72 h (0.74 MBq, Heart): 3.86
tissue to tissue ratio at 1 h (0.74 MBq, Intestine): 0.77
tissue to tissue ratio at 4 h (0.74 MBq, Intestine): 1.62
tissue to tissue ratio at 12 h (0.74 MBq, Intestine): 1.06
tissue to tissue ratio at 24 h (0.74 MBq, Intestine): 1
tissue to tissue ratio at 72 h (0.74 MBq, Intestine): 0.45
tissue to tissue ratio at 1 h (0.74 MBq, Kidney): 0.82
tissue to tissue ratio at 4 h (0.74 MBq, Kidney): 1.42
tissue to tissue ratio at 12 h (0.74 MBq, Kidney): 1.2
tissue to tissue ratio at 24 h (0.74 MBq, Kidney): 1.01
tissue to tissue ratio at 72 h (0.74 MBq, Kidney): 0.56
tissue to tissue ratio at 1 h (0.74 MBq, Liver): 1.06
tissue to tissue ratio at 4 h (0.74 MBq, Liver): 1.02
tissue to tissue ratio at 12 h (0.74 MBq, Liver): 1.05
tissue to tissue ratio at 24 h (0.74 MBq, Liver): 1.3
tissue to tissue ratio at 72 h (0.74 MBq, Liver): 0.89
tissue to tissue ratio at 1 h (0.74 MBq, Lung): 1.87
tissue to tissue ratio at 4 h (0.74 MBq, Lung): 3.98
tissue to tissue ratio at 12 h (0.74 MBq, Lung): 3.86
tissue to tissue ratio at 24 h (0.74 MBq, Lung): 4.89
tissue to tissue ratio at 72 h (0.74 MBq, Lung): 3.78
tissue to tissue ratio at 1 h (0.74 MBq, Muscle): 7.33
tissue to tissue ratio at 4 h (0.74 MBq, Muscle): 17.5
tissue to tissue ratio at 12 h (0.74 MBq, Muscle): 18
tissue to tissue ratio at 24 h (0.74 MBq, Muscle): 17.9
tissue to tissue ratio at 72 h (0.74 MBq, Muscle): 8.33
tissue to tissue ratio at 1 h (0.74 MBq, Spleen): 2.02
tissue to tissue ratio at 4 h (0.74 MBq, Spleen): 2.56
tissue to tissue ratio at 12 h (0.74 MBq, Spleen): 1.4
tissue to tissue ratio at 24 h (0.74 MBq, Spleen): 1.35
tissue to tissue ratio at 72 h (0.74 MBq, Spleen): 0.7
tissue to tissue ratio at 1 h (0.74 MBq, Stomach): 2.57
tissue to tissue ratio at 4 h (0.74 MBq, Stomach): 4.06
tissue to tissue ratio at 12 h (0.74 MBq, Stomach): 3.84
tissue to tissue ratio at 24 h (0.74 MBq, Stomach): 4.74
tissue to tissue ratio at 72 h (0.74 MBq, Stomach): 4.25
tissue to tissue ratio at 1 h (Blood): 0.25
tissue to tissue ratio at 1 h (Bone): 2.51
tissue to tissue ratio at 1 h (Brain): 14.8
tissue to tissue ratio at 1 h (Heart): 1.32
tissue to tissue ratio at 1 h (Intestine): 0.96
tissue to tissue ratio at 1 h (Kidney): 0.69
tissue to tissue ratio at 1 h (Liver): 1.19
tissue to tissue ratio at 1 h (Lung): 0.71
tissue to tissue ratio at 1 h (Muscle): 3.53
tissue to tissue ratio at 1 h (Spleen): 1.61
tissue to tissue ratio at 1 h (Stomach): 1.64
